# Source: patent publication US20110256557A1, “IDENTIFYING PARATHYROID HORMONE AGONISTS AND ANTAGONISTS” (DISCOVERYBIOMED, INC., priority 2008, published 2011)
# What was measured:
# β-catenin [1] = experiment: Western blot of cytosolic β-catenin in UMR-106 cells; assay type: cell-based, rat
# Experimental: (§1) Cells were harvested in cavitation buffer (5 mM HEPES, pH 7.4, 3 mM MgCl2, 1 mM EGTA, 250 mM sucrose) containing protease and phosphatase inhibitors and homogenized by nitrogen cavitation (200 p.s.i., for 5 minutes) in a cell disruption bomb (Parr Instrument Co.; Moline, Ill.). The cell homogenate was centrifuged twice at 700 g for 10 minutes to pellet the nuclei. The supernatant was further centrifuged at 100,000 g (Beckman SW50.1 rotor) for 1 hour to separate the membrane and cytosol fractions, and the resulting membrane pellet was washed three times with cavitation buffer before use in the assays (Zhang et al., Biochem. J. 343:541-9 (1999)). Immunoprecipitation and Western blot analysis of cell lysates were performed as described previously (Wan et al., Am. J. Pathol. 166:1379-92 (2005)).
# β-catenin [2] = experiment: Western blot of cytosolic β-catenin in mouse calvarial primary preosteoblasts; assay type: cell-based; settings: concentration- and time-dependent
# Experimental: Osteoblasts were isolated by digestion of calvaria of newborn mice as described (Wang et al., J. Clin. Invest. 117:1616-26 (2007)). Briefly, calvaria were incubated with 10 ml of digestion solution containing 1.8 mg/ml of collagenase type I (Worthington Biochemical Corp.; Lakewood, N.J.) for 15 minutes at 37° C. under constant agitation. The supernatant was then harvested, replaced with fresh collagenase and the digestion repeated an additional 4 times. Digestion solutions containing the osteoblasts were pooled together. After centrifugation, osteoblasts were obtained and cultured in α-Minimal Essential Media (MEM) containing 10% FBS and 1% penicillin/streptomycin at 37° C. in a humidified incubator supplied with 5% CO2.
# as §1, with “Immunoprecipitation and Western blot analysis of cell lysates were performed as described previously (Wan et al., Am. J. Pathol. 166:1379-92 (2005)).” left out
# PTH1R = molecular target: T1, PTH1R (Homo sapiens, UniProt Q03431); experiment: Co-immunoprecipitation of exogenous LRP5/LRP6 constructs with PTH1R in HEK293 cells; assay type: cell-based; settings: HEK293 cells
# T1 sequence (Q03431 27-593): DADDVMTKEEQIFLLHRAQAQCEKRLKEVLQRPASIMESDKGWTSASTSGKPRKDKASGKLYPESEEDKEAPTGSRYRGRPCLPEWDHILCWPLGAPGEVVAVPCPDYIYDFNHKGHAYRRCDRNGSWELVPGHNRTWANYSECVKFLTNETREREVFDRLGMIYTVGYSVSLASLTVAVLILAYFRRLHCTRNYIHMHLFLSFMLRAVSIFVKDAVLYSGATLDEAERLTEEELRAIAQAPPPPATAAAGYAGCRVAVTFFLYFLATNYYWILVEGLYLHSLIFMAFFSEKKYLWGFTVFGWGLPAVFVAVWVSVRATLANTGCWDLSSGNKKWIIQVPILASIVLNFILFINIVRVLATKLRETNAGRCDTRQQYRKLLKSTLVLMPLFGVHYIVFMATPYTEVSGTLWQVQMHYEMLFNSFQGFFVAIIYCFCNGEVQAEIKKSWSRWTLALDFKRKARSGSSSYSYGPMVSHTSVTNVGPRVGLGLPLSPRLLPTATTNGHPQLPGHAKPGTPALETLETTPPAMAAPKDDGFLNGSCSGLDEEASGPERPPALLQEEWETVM
# Text: PTH1R tagged with HA was subcloned into pcDNA3.1. cDNAs from human LRP5 (Mao et al., Mol. Cell. 7:801-9 (2001)) and LRP6 (Tamai et al., Nature 407:530-35 (2000)) tagged with HA and VSVG were subcloned into pCMV and pCS2^+, respectively. LRP6N+T (LRP6 N-terminal plus the transmembrane domain) and LRP6T+C (LRP6 transmembrane domain plus C-terminal) tagged with VSVG were subcloned into pCS2^+. LRP6N+1479m, LRP6N+1490m, LRP6N+1493m and LRP6N+1496m were generated by mutagenesis of either the serine (at amino acid 1490 or amino acid 1496) or threonine (at amino acid 1479 or amino acid 1493) to alanine LRP6N-IgG was generated by fusing the LRP6 extracellular domain with IgG (Tamai et al., Nature 407:530-35 (2000)). si-GFP (Wan et al., Am. J. Pathol. 166:1379-92 (2005)) and si-LRP6 plasmids were generated using a BS/U6 vector. Briefly, a 22-nucleotide oligo (oligo 1) corresponding to nucleotides 2981 to 3002 of the human LRP6 coding region was first inserted into the BS/U6 vector digested with ApaI (blunted) and HindIII. The inverted motif that contains the six-nucleotide spacer and five Ts (oligo 2) was then subcloned into the HindIII and EcoRI sites of the intermediate plasmid to generate BS/U6/LRP5/6.
# as §1
# CFP-PTH1R and YFP-LRP6 = molecular target: T2, CFP-PTH1R and YFP-LRP6 (Homo sapiens, UniProt Q03431); experiment: Photobleaching-based FRET of CFP-PTH1R and YFP-LRP6 in HEK293 cells; assay type: cell-based
# T2 construct: expressed in transfected cells; host or cells: HEK293
# T2 sequence (Q03431 27-593): T1 sequence (Q03431 27-593)
# Text: PTH1R and BMPRII cDNAs were cloned into ECFP-N1, and LRP6 and mLRP4T100 cDNAs were cloned into EYFP—N1 (Clonetech; Palo Alto, Calif.) expression vectors. These vectors were modified by site-directed mutagenesis that prevents the self-dimerization (Bhatia et al., Proc. Natl. Acad. Sci. USA 102:15569-74 (2005)). CFP and YFP were fused at the C-termini of the receptors. Because CFP-PTH1R or CFP-BMPRII (the fluorescent FRET donors) is quenched when in the proximity of YFP-LRP6 or YFP-mLRP4T100 (the acceptors), FRET efficiency can be measured by comparing donor fluorescence pre- and post-photobleaching of the acceptor. […] HEK293 cells on coverslips in 35 mm dishes were cotransfected with 0.1 μg of each plasmid. Cells were observed using Leica TCS SP II AOBS laser-scanning confocal microscope. An excitation wavelength of 405 nm and an emission range of 416-492 nm, and an excitation wavelength of 514 nm and an emission range of 525-600 nm were used to acquire images of CFP and YFP, respectively. YFP was photobleached by using full power of the 514 nm line for 1-2 minutes. An image of CFP and YFP fluorescence after photobleaching was obtained by using the respective filter sets. Images were representatives of three experiments. The FRET efficiencies were calculated according to: FRET eff %=[(Donorpost−Donorpre)/(Donorpost)]
substance,measurement,setting,value
Parathyroid hormone [PTH],abundance of β-catenin in the cytosol,β-catenin [1],enhanced
same,levels of β-catenin in the cytosol,β-catenin [2],enhanced
same,binding of exogenous PTH1R to exogenous LRP6,PTH1R,enhances
same,binding of LRP5 to PTH1R,PTH1R; exogenous LRP5 and PTH1R,did not enhance
same,FRET efficiency between CFP-PTH1R and YFP-LRP6,CFP-PTH1R and YFP-LRP6,increased
same,FRET efficiency in control pairs YFP-LRP6/CFP-BMPRII and CFP-PTH1R/YFP-mLRP4T100,CFP-PTH1R and YFP-LRP6,did not enhance the FRET efficiency
